Source: patent US20230141962A1 (published 2023)

Assays:
Test in all cases: phage ELISA
[1] = biological target: T1, HCoV-NL63 Spike/S1 Protein (HCoV-NL63, UniProt Q6Q1S2 19-717)
T1 construct: domain: Spike/S1; also called NL63-HIS
T1 sequence: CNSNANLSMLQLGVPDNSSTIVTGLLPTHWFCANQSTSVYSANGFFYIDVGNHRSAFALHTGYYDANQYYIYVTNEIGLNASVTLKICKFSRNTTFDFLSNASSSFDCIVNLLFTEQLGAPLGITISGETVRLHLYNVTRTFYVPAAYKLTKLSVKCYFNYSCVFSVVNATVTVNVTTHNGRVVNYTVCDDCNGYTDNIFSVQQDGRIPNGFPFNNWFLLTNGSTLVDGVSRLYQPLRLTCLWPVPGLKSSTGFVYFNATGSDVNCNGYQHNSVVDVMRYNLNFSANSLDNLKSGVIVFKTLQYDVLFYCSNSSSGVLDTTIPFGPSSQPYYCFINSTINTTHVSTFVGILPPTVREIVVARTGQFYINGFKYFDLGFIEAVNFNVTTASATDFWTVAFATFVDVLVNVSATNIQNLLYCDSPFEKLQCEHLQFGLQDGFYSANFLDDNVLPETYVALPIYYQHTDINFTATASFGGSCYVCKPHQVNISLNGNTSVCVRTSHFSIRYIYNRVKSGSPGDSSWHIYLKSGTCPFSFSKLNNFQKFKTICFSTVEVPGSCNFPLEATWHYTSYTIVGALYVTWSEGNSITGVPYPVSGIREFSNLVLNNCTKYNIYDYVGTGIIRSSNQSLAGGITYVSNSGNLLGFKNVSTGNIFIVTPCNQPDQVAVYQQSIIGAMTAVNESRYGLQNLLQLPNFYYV

HCoV-OC43 Spike Protein = biological target: T2, HCoV-OC43 Spike Protein (HCoV-OC43, UniProt P36334 14-1297)
T2 construct: also called OC43-HIS
T2 sequence: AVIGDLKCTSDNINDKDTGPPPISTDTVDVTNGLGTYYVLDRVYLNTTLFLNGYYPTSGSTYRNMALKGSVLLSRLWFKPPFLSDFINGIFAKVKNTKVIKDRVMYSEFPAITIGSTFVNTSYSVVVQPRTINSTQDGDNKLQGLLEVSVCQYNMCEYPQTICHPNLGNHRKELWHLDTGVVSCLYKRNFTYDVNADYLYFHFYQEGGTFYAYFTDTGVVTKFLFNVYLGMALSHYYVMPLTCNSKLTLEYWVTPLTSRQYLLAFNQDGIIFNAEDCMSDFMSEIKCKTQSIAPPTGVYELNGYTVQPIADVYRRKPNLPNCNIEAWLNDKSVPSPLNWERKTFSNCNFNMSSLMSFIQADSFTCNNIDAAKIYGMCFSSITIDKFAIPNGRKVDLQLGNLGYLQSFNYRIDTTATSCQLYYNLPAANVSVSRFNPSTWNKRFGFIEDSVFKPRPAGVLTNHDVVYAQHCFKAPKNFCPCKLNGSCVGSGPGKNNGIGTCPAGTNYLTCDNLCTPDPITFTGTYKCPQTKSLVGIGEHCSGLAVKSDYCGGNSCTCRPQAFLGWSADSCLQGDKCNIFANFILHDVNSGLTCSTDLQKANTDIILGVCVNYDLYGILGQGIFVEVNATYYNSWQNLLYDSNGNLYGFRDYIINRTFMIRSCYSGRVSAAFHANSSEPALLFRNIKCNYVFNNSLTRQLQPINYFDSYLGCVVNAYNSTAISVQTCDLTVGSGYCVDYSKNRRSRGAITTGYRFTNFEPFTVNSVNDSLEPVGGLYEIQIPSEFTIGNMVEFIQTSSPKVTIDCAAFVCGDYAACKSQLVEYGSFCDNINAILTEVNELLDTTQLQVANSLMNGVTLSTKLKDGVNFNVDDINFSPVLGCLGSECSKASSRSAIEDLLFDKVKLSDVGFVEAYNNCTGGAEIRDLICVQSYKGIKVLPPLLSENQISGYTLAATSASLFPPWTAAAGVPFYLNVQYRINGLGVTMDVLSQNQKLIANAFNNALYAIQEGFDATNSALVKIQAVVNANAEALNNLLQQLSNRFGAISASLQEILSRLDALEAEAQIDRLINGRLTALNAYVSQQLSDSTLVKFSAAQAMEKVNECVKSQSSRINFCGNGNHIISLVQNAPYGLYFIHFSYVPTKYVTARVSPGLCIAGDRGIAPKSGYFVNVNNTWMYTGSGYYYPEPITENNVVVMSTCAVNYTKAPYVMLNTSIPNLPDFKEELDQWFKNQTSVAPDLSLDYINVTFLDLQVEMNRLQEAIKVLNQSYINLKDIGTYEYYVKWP

[2] = biological target: T3, HCoV-HKU1 Spike/S1 Protein (HCoV-HKU1, UniProt Q0ZME7 13-756)
T3 construct: domain: Spike/S1; also called HKU1-HIS
T3 sequence: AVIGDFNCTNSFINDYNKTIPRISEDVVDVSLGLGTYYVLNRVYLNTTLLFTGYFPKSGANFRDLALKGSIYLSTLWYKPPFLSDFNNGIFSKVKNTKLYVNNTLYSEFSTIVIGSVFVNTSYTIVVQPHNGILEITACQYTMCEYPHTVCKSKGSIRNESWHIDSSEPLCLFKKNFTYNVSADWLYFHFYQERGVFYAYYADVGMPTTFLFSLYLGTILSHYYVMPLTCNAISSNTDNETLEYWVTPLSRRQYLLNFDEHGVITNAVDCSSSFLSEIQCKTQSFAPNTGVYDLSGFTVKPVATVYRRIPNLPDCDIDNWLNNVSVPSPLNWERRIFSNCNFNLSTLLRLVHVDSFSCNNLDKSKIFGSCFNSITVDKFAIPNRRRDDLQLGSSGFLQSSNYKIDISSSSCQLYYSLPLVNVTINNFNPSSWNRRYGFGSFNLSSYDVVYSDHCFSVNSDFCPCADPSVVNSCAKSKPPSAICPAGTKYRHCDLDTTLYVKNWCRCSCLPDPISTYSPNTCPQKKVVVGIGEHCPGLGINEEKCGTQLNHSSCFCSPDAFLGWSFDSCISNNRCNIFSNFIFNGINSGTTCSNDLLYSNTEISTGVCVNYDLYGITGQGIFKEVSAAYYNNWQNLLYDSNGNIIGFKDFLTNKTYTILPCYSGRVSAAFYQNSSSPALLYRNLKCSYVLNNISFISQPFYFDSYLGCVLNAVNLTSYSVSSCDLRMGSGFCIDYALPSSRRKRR

[3] = biological target: T4, HCoV-229E Spike/S1 Protein (HCoV-229E, UniProt P15423 16-536)
T4 construct: domain: Spike/S1; also called 229E-HIS
T4 sequence: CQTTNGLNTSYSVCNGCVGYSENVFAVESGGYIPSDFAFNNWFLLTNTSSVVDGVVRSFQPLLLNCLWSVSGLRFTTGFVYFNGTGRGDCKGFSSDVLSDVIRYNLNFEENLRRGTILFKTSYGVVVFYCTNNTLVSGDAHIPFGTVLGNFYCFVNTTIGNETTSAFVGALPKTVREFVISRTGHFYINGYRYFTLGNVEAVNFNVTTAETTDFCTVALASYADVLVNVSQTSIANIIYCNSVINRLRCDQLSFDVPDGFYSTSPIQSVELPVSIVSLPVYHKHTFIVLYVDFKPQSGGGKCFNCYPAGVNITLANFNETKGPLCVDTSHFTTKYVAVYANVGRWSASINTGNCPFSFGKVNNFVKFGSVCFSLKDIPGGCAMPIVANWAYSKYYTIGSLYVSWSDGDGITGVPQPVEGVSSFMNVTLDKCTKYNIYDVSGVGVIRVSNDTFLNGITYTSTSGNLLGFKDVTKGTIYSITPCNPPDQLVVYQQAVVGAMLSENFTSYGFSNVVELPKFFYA

Measured: binding result

B1: phage clone #20 (scFv)
scFv: SYVLTQPPSASGTPGQRVTISCSGSSSNIGSNTVNWYQQLPGTAPKLLIYSNNQRPSGVPDRFSASKSGTSASLAISGFQSEDEADYYCAAWDDSLDGYVFGTGTKVTVLGSRGGGGSGGGGSGGGGSLEMAEVQLVQSGAEVKKPGESLKISCKGSGYSFPSYWIGWVRQMPGKGLEWMGIIYPGDSDTRYSPSFQGQVTISADKSISTAYLQWSSLKASDTAMYYCARGSYTYMGGSYDYWGQGTLVTVSSTSGQAGQ
no binding: [1] | HCoV-OC43 Spike Protein | [2] | [3]

B2: phage clone #30 (scFv)
scFv: QSALTQPPSASGSPGQSVTISCTGTSSDVGGYDYVSWYQQHPGKAPKLMIYEVSKRPSGVSNRFSGSKSGNTASLTISGLQAEDEADYYCSSYTSSSTFPYVFGTGTKVTVLGSRGGGGSGGGGSGGGGSLEMAEVQLVESGGGLEQPGGSLRLSCAASGFTFSSYAMSWVRQAPGKGLEWVSAISASGNSTFYADSVKGRFTISRDNSKHTLDLQMNSLRADDTAVYYCARNSDVWGQGTLVTVSSTSGQAGQ
no binding: [1] | HCoV-OC43 Spike Protein | [2] | [3]

B3: phage clone #19 (scFv)
scFv: QSALTQPASVSGSPGQSITISCTGTSSDVGGYNYVSWYQQHPGKVPKLMIYEVSNRPSGVSNRFSGSKSGNTASLTISGLQAEDEADYYCSSYTSGDTLVFGGGTKVTVLGSRGGGGSGGGGSGGGGSLEMAELQLVESGGGVVQPGRSPRLSCAASGFTFSNYPMHWVRQAPGKGLEWVAVISYDGNHKYYADSLEGRFSISRDNSKNTLYLQMNSLTAADTAVYYCARGGGMGGLDSWGQGTLVTVSSTSGQAGQ
no binding: [1] | HCoV-OC43 Spike Protein | [2] | [3]

B4: phage clone #13 (scFv)
scFv: QSVLTQPPSASGTPGQRVTISCSGSSSNIGSNYVYWYQQLPGTAPKLLIYRNNQRPSGVPDRFSGSKSGTSASLAISGLRSEDEADYYCAAWDDSLSGPNYVFGTGTKVTVLGSRGGGGSGGGGSGGGGSLEMAQVQLVQSGAEVKKPGSSVKVSCKASGGTFSSYAISWVRQAPGQGLEWMGWISGYNGNTNYAQKLQGRVTMTTDTSTSTAYMELRSLRSDDTAVYYCARTGWSKGEKVTTWGEWFYVDYWGQGTLVTVSSTSGQAGQ
no binding: [1] | HCoV-OC43 Spike Protein | [2] | [3]
